From patent publication US7994133B2, “Isozyme-specific antagonists of protein kinase C” (The Board of Trustees of the Leland Stanford Junior …, priority 2003, dated 2011)
Changes are numbered by the printed parent chain.

Columns and labels:
Assay type in all cases: cell-based
CHO cells = assay: Real-time confocal imaging of PMA-induced εPKC translocation with mathematical modeling; details: for time after PMA stimulation at which the enzyme was found at the cell periphery: YFP-εPKC D(86)A and CFP-εPKC Wt co-transfected in the same cell; for C3 / C5 / C1: constant of bi-exponential fit; for C1: level of εPKC in the cytosol at steady state; for k − 2: rate of detachment from the membrane; for k1 = C5: rate of εPKC opening in the cytosol
Protocol: CHO cells were grown on glass coverslips, and serum-starved as described in Example 4. For each experiment, cells were transferred to a commercially available metal coverslip holder (Molecular Probes) in which the coverslip formed the bottom of a 1 ml bath. The media was then replaced with extracellular buffer (120 mM NaCl, 5 mM KCl, 1.5 mM CaCl2, 1.5 mM MgCl2, 20 mM HEPES and 30 mM glucose). Cells were stimulated by either PMA (100 nM), or with ATP (1 mM) in extracellular buffer. Fluorescence images of GFP-tagged constructs were obtained using the 488 nm excitation line of a laser scanning confocal microscope (Pascal, Zeiss) and emission was collected through a 505-550 nm band pass filter. Cells were imaged on the stage of an inverted microscope (Axiovert 100M) using a 40× Zeiss Plan-apo oil immersion objective with 1.2 numerical aperture (NA). For dual color imaging of CFP and YFP fusion proteins, a spinning disk Nipkow confocal microscope was used. Cells were viewed using an inverted Olympus IX70 microscope with a 40× oil immersion Olympus objective (1.35NA) and images were acquired with a CCD camera (Hamamatsu) and 2×2 pixel binning. CFP was excited with the 442 nm laser line of a helium-cadmium laser (Kimmon) whereas YFP was imaged with the 514 nm line of an argon ion laser (Melles-Griot). To selectively photobleach YFP labeled proteins in local regions of the cytoplasm for FRAP experiments, the 514 nm line of an Enterprise laser (Coherent) at maximal power (˜400 mW) was used. For these experiments, a 60× oil immersion objective was used (1.4NA). Under these conditions, and by placing an iris in the beam path, it was possible to bleach 80% of the YFP fluorescence in 500 ms in an area of the cytosol measuring approximately 35 um2. Real time confocal images were acquired every 10-15 seconds for 20 minutes for experiments utilizing PMA, and every 5 seconds for a total duration of 3 minutes in the case of cells stimulated with ATP. Reagents were added to the cell chamber after the fifth image in each time series. […] All images were acquired at room temperature. Images were exported as 12 or 16 bit files and changes in fluorescence intensity were measured using MetaMorph® data analysis software (Universal Imaging Corp.). To monitor the translocation of PKC, a small region of interest was selected in the cytosol of each cell and fluorescence intensity values graphed against time after subtraction of background values and normalized so that the initial fluorescence was 100%. Averages of 10-15 cells from three independent experiments were used. To determine statistical significance, a 1 tail type 2 T-test (Microsoft excel) was used.
Mathematical modeling was obtained from data of cells expressing similar levels of the different εPKC ΨεRACK mutants. Non-linear least squares curve fitting analysis was performed using the EViews software (QMS) and differential equation analysis was performed using Berkeley Madonna™. All other methods for this Example were performed as described, for example, in Examples 4 and 6.
Fluorescence time courses were analyzed by a non-linear regression analysis with single and biexponential equations (1 and 2) as previously done by Nalefski and Newton Nalefski, E. A. & Newton, A. C., Biochemistry 40:13216-13229 (2001)], where I(t) is the concentration of observed molecules in the cytosol at time (t), and C1-5 are constants. I(t)=C1+C2e^(−C3(t)) 1. I(t)=C1+C2e^(−C3(t))+C4e^(−C5(t)) 2. Residual error graphs obtained using single exponential equations (FIG. 8A) and using biexponential equations (FIG. 8B) for the D(86)A εPKC mutant translocation process is shown in FIGS. 8A-8D. […] This process can be described as follows:
The value of C1 corresponds to the level of εPKC in the cytosol at steady state. It was next determined whether the hypothesis that the values obtained for C1 and C3 of D(86)A and Wt εPKCs are statistically equivalent. […]

CHO and MCF-7 cells = assay: PKC translocation by Western blot, soluble to particulate fraction, after PMA; details: 10 minutes PMA, 100 nM in CHO, 10 nM in MCF-7
Protocol: To assess PKC distribution the different cell fractions were run on SDS PAGE, transferred for Western blot analysis and probed with anti-εPKC V5 antibodies. Lysates of overexpressed GFP-εPKC were diluted to approximately 0.2 μg/well. At this concentration endogenous εPKC was not detected. All other methods for this Example were performed as described, for example, in Example 4. It was also confirmed that the Wt and ΨεRACK εPKC mutants were sensitive to activation by phorbol ester and that they translocated from the soluble to the particulate fraction of the cell upon activation. Translocation of the εPKC mutants was determined using two different cell lines, MCF-7 and CHO. [CHO cells were stimulated for 10 minutes with 100 nM PMA (FIG. 6C). MCF-7 cells were stimulated with 10 nM PMA for 10 minutes (FIG. 6D, 6E), since stimulation of MCF-7 cells with higher doses of PMA caused a detachment of the cells]. After treatment with PMA, cells were fractionated into soluble and particulate fractions, and GFP-εPKC was detected and quantified by Western blot analysis using anti-εPKC. […] This is not due to PKC degradation; the total amount of εPKC was not changed upon activation. Therefore, GFP-εPKC ΨεRACK mutants were catalytically active and responded to activation by PMA by translocating from the soluble to the particulate fraction of the cell.

[1] = Fluorescence recovery after photobleaching (FRAP) of cytoplasmic εPKCs; details: average of at least 10 cells
Protocol: CHO cells were grown on glass coverslips, and serum-starved as described in Example 4. For each experiment, cells were transferred to a commercially available metal coverslip holder (Molecular Probes) in which the coverslip formed the bottom of a 1 ml bath. The media was then replaced with extracellular buffer (120 mM NaCl, 5 mM KCl, 1.5 mM CaCl2, 1.5 mM MgCl2, 20 mM HEPES and 30 mM glucose). Cells were stimulated by either PMA (100 nM), or with ATP (1 mM) in extracellular buffer. Fluorescence images of GFP-tagged constructs were obtained using the 488 nm excitation line of a laser scanning confocal microscope (Pascal, Zeiss) and emission was collected through a 505-550 nm band pass filter. Cells were imaged on the stage of an inverted microscope (Axiovert 100M) using a 40× Zeiss Plan-apo oil immersion objective with 1.2 numerical aperture (NA). For dual color imaging of CFP and YFP fusion proteins, a spinning disk Nipkow confocal microscope was used. Cells were viewed using an inverted Olympus IX70 microscope with a 40× oil immersion Olympus objective (1.35NA) and images were acquired with a CCD camera (Hamamatsu) and 2×2 pixel binning. […] Under these conditions, and by placing an iris in the beam path, it was possible to bleach 80% of the YFP fluorescence in 500 ms in an area of the cytosol measuring approximately 35 um2. […] Images were exported as 12 or 16 bit files and changes in fluorescence intensity were measured using MetaMorph® data analysis software (Universal Imaging Corp.). To monitor the translocation of PKC, a small region of interest was selected in the cytosol of each cell and fluorescence intensity values graphed against time after subtraction of background values and normalized so that the initial fluorescence was 100%. […]
Different translocation rates may reflect differences in overall mobility (diffusion) of the εPKCs in cells. Therefore, fluorescence recovery after photobleaching (FRAP) of the cytoplasmic enzyme was measured; mobility of εPKCs was measured by monitoring the time required for the fluorescence to recover in a bleached region. […]

[2] = rate of closing in the cytosol, assumed negligible
[3] = rate of εPKC binding to the membrane, calculated with k-1 negligible

B1: D(86)A: εPKC mutant wherein D at position 86 of ΨεRACK on εPKC is substituted with an A (protein)
chain: MVVFNGLLKIKICEAVSLKPTAWSLRHAVGPRPATFLLDPYIALNVDDSRIGQTATKQKTNSPAWHDEFVTDVCNGRKIELAVFHAAPIGYDDFVANCTIQFEELLQNGSRHFEDWIDLEPEGRVYVIIDLSGSSGEAPKDNEERVFRERMRPRKRQGAVRRRVHQVNGHKFMATYLRQPTYCSHCRDFIWGVIGKQGYQCQVCTCVVHKRCHELIITKCAGLKKQETPDQVGSQRFSVNMPHKFGIHNYKVPTFCDHCGSLLWGLLRQGLQCKVCKMNVHRRCETNVAPNCGVDARGIAKVLADLGVTPDKITNSGQRRKKLIAGAESPQPASGGSPSEEDRSKSAPTSPCDQEIKELENNIRKALSFDNRGEEHRAASSPDGQLMSPGENGEVRQGQAKRLGLDEFNFIKVLGKGSFGKVMLAELKGKDEVYAVKVLKKDVILQDDDVDCTMTEKRILALARKHPYLTQLYCCFQTKDRLFFVMEYVNGGDLMFQIQRSRKFDEPRSRFYAAEVTSALMFLHQHGVIYRDLKLDNILLDAEGHCKLADFGMCKEGILNGVTTTTFCGTPDYIAPEILQELEYGPSVDWWALGVLMYEMMAGQPPFEADNEDDLFESILHDDVLYPVWLSKEAVSILKAFMTKNPHKRLGCVASQNGEDAIKQHPFFKEIDWVLLEQKKIKPPFKPRIKTKRDVNNFDQDFTREEPVLTLVDEAIVKQINQEEFKGFSYFGEDLMP
rate of translocation (decrease of fluorescence in the cytoplasm) (CHO cells; 100 nM PMA, GFP fusion): faster rate
time at which translocation to the cell periphery became apparent (CHO cells; 100 nM PMA, GFP fusion): within one minute
time after PMA stimulation at which the enzyme was found at the cell periphery (CHO cells; 100 nM PMA): 1.5 min
(k2 + k − 2) = C3 (CHO cells; calculated with k-1 negligible): 0.016 ± 0.001
k − 2/(k2 + k − 2) = C1/100 (CHO cells; calculated with k-1 negligible): 0.306 ± 0.002
C3 (CHO cells; 100 nM PMA): 0.016 ± 0.001
C5 (CHO cells; 100 nM PMA): 0.040 ± 0.007
C1 (CHO cells; 100 nM PMA): 30.59 ± 0.286
k − 1 (CHO cells; [2]): ~0
k − 2 (CHO cells; calculated with k-1 negligible): 0.005 ± 0.0004
k2 (CHO cells; [3]): 0.011 ± 0.003
k1 = C5 (CHO cells; calculated with k-1 negligible): 0.040 ± 0.007
increase of εPKC in the particulate fraction compared with D(86)N or Wt (CHO and MCF-7 cells): greater increase
time to fifty percent FRAP [1]: 9.2 ± 1.1 s

B2: Wt: wild type εPKC, human construct (protein)
chain: B1 chain with A86D
rate of translocation (decrease of fluorescence in the cytoplasm) (CHO cells; 100 nM PMA, GFP fusion): slower rate
time at which translocation to the cell periphery became apparent (CHO cells; 100 nM PMA, GFP fusion): 2 to 3 min
time after PMA stimulation at which the enzyme was found at the cell periphery (CHO cells; 100 nM PMA): > 10 min
(k2 + k − 2) = C3 (CHO cells; calculated with k-1 negligible): 0.016 ± 0.004
k − 2/(k2 + k − 2) = C1/100 (CHO cells; calculated with k-1 negligible): 0.305 ± 0.010
C3 (CHO cells; 100 nM PMA): 0.016 ± 0.004
C5 (CHO cells; 100 nM PMA): 0.009 ± 0.001
C1 (CHO cells; 100 nM PMA): 30.46 ± 0.991
k − 1 (CHO cells; [2]): ~0
k − 2 (CHO cells; calculated with k-1 negligible): 0.005 ± 0.0011
k2 (CHO cells; [3]): 0.011 ± 0.002
k1 = C5 (CHO cells; calculated with k-1 negligible): 0.009 ± 0.001
time to fifty percent FRAP [1]: 9.0 ± 1.2 s

B3: D(86)N: εPKC mutant wherein D at position 86 of ΨεRACK in εPKC is substituted with an N (protein)
chain: B1 chain with A86N
steady state level of fluorescence in the cytoplasm (CHO cells; 100 nM PMA, GFP fusion): higher level
time at which translocation to the cell periphery became apparent (CHO cells; 100 nM PMA, GFP fusion): 5 min
C3 (CHO cells; 100 nM PMA): 0.010 ± 0.0003
C5 (CHO cells; 100 nM PMA): 0.034 ± 0.004
C1 (CHO cells; 100 nM PMA): 38.38 ± 0.254
k2 (CHO cells; rate of binding to the membrane, simulations using differential equations): 0.01138
k − 1 (CHO cells; rate of closing, simulations using differential equations): 0.005
k − 2 (CHO cells; simulations using differential equations): 0.0052
k1 (CHO cells; rate of opening, simulations using differential equations, k1 = C5 not valid): 0.0135
time to fifty percent FRAP [1]: 9.1 ± 1.6 s
